Data published in patent US20220211826A1.

Columns and labels:
[1] = target: PD-L1 expressed by hepatocytes of C57BL/6 mice (mouse) (UniProt Q9EP73); assay: cell-based or functional assay
[2] = target: H-2Kb/SIINFEKL pMHC complex on primary hepatocytes (mouse); assay: cell-based or functional assay

Chain of UniProt Q9EP73 (Q9EP73 19-290): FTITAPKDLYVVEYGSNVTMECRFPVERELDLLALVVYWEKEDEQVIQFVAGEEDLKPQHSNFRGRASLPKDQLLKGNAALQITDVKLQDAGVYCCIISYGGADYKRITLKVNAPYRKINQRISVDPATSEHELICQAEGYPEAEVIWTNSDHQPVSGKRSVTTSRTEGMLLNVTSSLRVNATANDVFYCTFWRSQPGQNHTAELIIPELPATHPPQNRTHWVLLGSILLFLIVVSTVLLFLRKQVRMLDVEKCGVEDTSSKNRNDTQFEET

“rat IgG isotype control Ab (Abcam) (antibody)” gave a frequency of CD45.1+ OT-I cells among viable CD3+CD8+ lymphocytes in dLNs, mice given hepatocytes treated with pGal-OVA and isotype control antibody [1] of 0.2%, a frequency of dLN IFN-γ+ OT-I cells, pGal-OVA and isotype control antibody-treated hepatocytes [1] of 29.2% and a frequency of dLN IL-2+ OT-I cells, pGal-OVA and isotype control antibody-treated hepatocytes [1] of 4.21%.
Work on “T cell receptor of OT-I cells (transgenic CD8+ T cells specific for H-2Kb/SIINFEKL) (TCR)” yielded a CD69+ OT-I cells after 24 hr co-culture with hepatocytes incubated with pGal-OVA alone [2] of 17%, a CD69+ OT-I cells after 24 hr co-culture with hepatocytes treated with pGal-OVA and MG132 [2] of 3.98% and a CD69+ OT-I cells after 24 hr co-culture with hepatocytes treated with pGal-OVA and chloroquine [2] of 7.38%.
“αPD-L1 blocking Ab (BioxCell, clone 10F.9G2) (antibody)” was tested, and the frequency of CD45.1+ OT-I cells among viable CD3+CD8+ lymphocytes in dLNs, mice given pGal-OVA- and αPD-L1-treated hepatocytes [1] was 0.45%, the frequency of IFN-γ+ OT-I cells after OVA/LPS challenge, αPD-L1-treated hepatocytes [1] was 47.1% and the frequency of IL-2+ OT-I cells after OVA/LPS challenge, αPD-L1-treated hepatocytes [1] was 7.53%.
